The series concerns piggyBac transposase (PBase) (Trichoplusia ni). Description: cell_activity.

The text below walks through data of US20100154070.

With “PB[SV40-neo] donor transposon (PBL/PBR termini)”, the activity (human 293 cells, CMV-PBase helper, scale: fold G418-resistant clones vs donor alone) turned out to be 10. Regarding PB[K14-Tyr, Act-RFP] donor transposon, where the note is “mouse, 26/31 founders, Act-PBase”, the activity (% founders with transposition) turned out to be 83.9. Substance “PB[PGK-neo] donor transposon (PBL/PBR termini)” returned an activity (mouse W4/129S6 ES cells, Act-PBase helper, scale: fold drug-resistant clones vs donor alone) of 50. In the case of “PB[Act-RFP] donor transposon (PBL/PBR termini)”, the activity (% transposon single-positive founders) (mouse pronuclear co-injection with Act-PBase, 10.4% without helper, precise excision in male germline shown with Prm1-PBase (p230)) was determined as 34.8.
